Publication PMC5910447, “Efficient production of secretory Streptomyces clavuligerus β-lactamase inhibitory protein (BLIP) in Pichia pastoris” (AMB Express, 2018)

Molecular target: T1, TEM-1 β-lactamase (UniProt P62593 24-286)
T1 construct: TEM-1 β-lactamase (class A); whether the construct carries a tag or its signal peptide is not known; also called TEM-1 enzyme; source: E. coli haboring pRSET-K/TEM-1 β-lactamase (lab stock); production procedure in Additional file 1: Methods
Assay: enzyme inhibition assay (nitrocefin hydrolysis, free β-lactamase against inhibitor concentration); 1.5 nM TEM-1 β-lactamase pre-incubated with 0–15 nM BLIP in 50 mM sodium phosphate buffer with 1 mg/mL bovine serum albumin for 2 h at 25 °C; then 21 μM nitrocefin, absorbance at 500 nm; nonlinear fit to Eq. 1; Ki* (equilibrium dissociation constant) equivalent to Ki

T1 sequence (P62593 24-286): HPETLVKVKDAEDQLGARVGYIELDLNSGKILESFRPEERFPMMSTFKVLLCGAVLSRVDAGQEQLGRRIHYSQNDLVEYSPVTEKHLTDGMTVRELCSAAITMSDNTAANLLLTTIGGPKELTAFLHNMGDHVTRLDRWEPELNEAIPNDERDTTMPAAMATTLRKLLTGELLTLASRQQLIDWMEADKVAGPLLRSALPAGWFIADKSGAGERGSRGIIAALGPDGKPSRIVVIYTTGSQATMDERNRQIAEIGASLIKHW

B1: β-Lactamase inhibitory protein (BLIP), recombinant, secreted by P. pastoris (EAEAEF-mature BLIP) (natural protein, Streptomyces clavuligerus)
chain: EAEAEFAGVMTGAKFTQIQFGMTRQQVLDIAGAENCETGGSFGDSIHCRGHAAGDYYAYATFGFTSAAADAKVDSKSQEKLLAPSAPTLTLAKFNQVTVGMTRAQVLATVGQGSCTTWSEYYPAYPSTAGVTLSLSCFDVDGYSSTGFYRGSAHLWFTDGVLQGKRQWDLV
notes: peptide left at the N-terminus after Kex2 cleavage of the α-factor mating signal; the blip gene's own terminator was kept, so no C-terminal vector tags are expected (calculated mass 18,219.25 matches EAEAEF-mature BLIP); also called recombinant BLIP; P. pastoris-expressed BLIP; source: P. pastoris X-33 (pPICZαA/BLIP, methanol induction), secreted; recovered from the culture supernatant without …
  Ki: 0.55 ± 0.07 nM
